According to article PMC3229578, “Brachyury and Related Tbx Proteins Interact with the Mixl1 Homeodomain Protein and Negatively Regulate Mixl1 Transcriptional Activity” (PLoS ONE, 2011):
One block for each binder: values may come before it.

Tests used:
Assay in all cases: pull-down; bacterially made, purified His-Brachyury derivatives incubated with GST-Mixl1 derivatives or GST alone on glutathione beads in ELB150 buffer, 4°C, 3 h; washed in ELB300 (0.3 M KCl); Western blot with anti-T N19
Settings in all cases: both partners purified
[1] = biological target: T1, His mT-box (mouse, UniProt P20293 1-230)
T1 construct: Brachyury (T), mouse, T-box domain aa 1-230; also called His-Brachyury T-box domain; T-box domain (aa 1–230) of Brachyury; source: E. coli BL21 RIPL(DE3), purified (Talon resin)
T1 sequence (looked up): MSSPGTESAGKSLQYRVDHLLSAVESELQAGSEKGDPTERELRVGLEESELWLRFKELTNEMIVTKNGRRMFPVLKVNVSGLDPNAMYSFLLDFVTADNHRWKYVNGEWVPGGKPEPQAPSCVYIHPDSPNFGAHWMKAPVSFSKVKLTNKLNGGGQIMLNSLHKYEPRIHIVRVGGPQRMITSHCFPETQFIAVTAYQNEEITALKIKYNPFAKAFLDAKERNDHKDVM

[2] = biological target: T2, His-mBrachyury (mouse, UniProt P20293 1-436)
T2 construct: Brachyury (T), mouse; in pET15b by Gateway cloning; also called mT; recombinant His-tagged T protein; source: E. coli BL21 RIPL(DE3), purified (Talon resin)
T2 sequence (looked up): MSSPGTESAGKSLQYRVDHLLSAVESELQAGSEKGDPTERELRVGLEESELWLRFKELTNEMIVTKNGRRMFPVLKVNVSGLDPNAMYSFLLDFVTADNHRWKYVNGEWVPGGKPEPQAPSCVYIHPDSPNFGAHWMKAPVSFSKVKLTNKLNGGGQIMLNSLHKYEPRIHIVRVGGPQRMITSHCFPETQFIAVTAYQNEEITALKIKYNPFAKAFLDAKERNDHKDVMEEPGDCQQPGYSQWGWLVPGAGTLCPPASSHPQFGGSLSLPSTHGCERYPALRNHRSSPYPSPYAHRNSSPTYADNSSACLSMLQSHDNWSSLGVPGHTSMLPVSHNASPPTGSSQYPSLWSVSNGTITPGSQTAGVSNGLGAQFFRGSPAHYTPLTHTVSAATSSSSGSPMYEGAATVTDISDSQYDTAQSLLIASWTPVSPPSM

[3] = biological target: T3, His-hBrachyury (human, UniProt O15178 1-435)
T3 construct: Brachyury (T), human; in pET15b by Gateway cloning; also called hT; pET15b-hBrachyury; source: E. coli BL21 RIPL(DE3), purified (Talon resin)
T3 sequence (looked up): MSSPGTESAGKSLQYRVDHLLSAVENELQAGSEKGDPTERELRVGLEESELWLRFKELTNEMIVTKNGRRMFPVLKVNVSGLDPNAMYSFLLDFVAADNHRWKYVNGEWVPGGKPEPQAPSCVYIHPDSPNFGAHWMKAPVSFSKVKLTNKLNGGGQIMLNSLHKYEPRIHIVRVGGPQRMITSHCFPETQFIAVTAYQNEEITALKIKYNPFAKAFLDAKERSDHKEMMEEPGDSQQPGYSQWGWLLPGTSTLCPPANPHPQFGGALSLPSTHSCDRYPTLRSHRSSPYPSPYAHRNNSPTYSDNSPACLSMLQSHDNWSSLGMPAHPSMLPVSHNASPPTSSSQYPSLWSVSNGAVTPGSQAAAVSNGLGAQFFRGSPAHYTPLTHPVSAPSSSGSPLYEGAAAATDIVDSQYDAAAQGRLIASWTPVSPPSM

binding result [1]: binds
B1: GST mMixl1 HD (domain or fragment)
chain: not shown
notes: Made as one of the 'GST-Mixl1 derivatives' of the methods; source: E. coli BL21 RIPL(DE3), purified (glutathione agarose)

binding result [2]: binds
B2: GST-mMixl1 (bacterial) (natural protein)
chain: not shown
notes: Mixl1 homeodomain protein, mouse; in pGEX2T by Gateway cloning; also called recombinant GST mMixl1; pGEX-mMixl1; source: E. coli BL21 RIPL(DE3), purified (glutathione agarose)

binding result [3]: binds
B3: GST-hMixl1 (natural protein)
chain: not shown
notes: MIXL1, the human ortholog of Mixl1; in pGEX2T by Gateway cloning; also called pGEX-hMixl1; source: E. coli BL21 RIPL(DE3), purified (glutathione agarose)
